Source: the supplement of paper PMC10567573

B1: FUT8 (parent)
chain: YAHQPRTADEIPMEPGDIIGVAGN

Variants of: B1
Assay: protein stability index of a GFP-peptide fusion (GPS, HEK-293T) (PSI 1-6); higher = more stable
Details: c terminus: a fixed tail appended
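Also: lentivirally expressed fusions sorted by FACS into six bins by GFP to DsRed ratio, PSI derived from sequencing read proportions per bin multiplied by bin number.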

Row | Variant | protein stability index
1 | YAHQPRTADEIPMELGDIIGVAGN | 3.2
2 | YAHQPRTADEIPMEDGDIIGVAGN | 4.32
3 | YAHQPRTADEIPMETGDIIGVAGN | 4.25
4 | YAHQPRTADEIPMEKGDIIGVAGN | 4.16
5 | YAHQPRTADEIPMEAGDIIGVAGN | 4.38
6 | YAHQPRTADEIPMEHGDIIGVAGN | 3.86
7 | YAHQPRTADEIPMEFGDIIGVAGN | 3.52
8 | YAHQPRTADEIPMEWGDIIGVAGN | 2.2
9 | YAHQPRTADEIPMEPGDIIGVMGN | 3.96
10 | YAHQPRTADEIPMEPGDIIGVFGN | 2.85
11 | YAHQPRTADEIPMEPGDIIGVHGN | 3.97
12 | YAHQPRTADEIPMEPGDIIGVGGN | 4.01
13 | YAHQPRTADEIPMEPGDIIGVDGN | 4.19
14 | YAHQPRTADEIPMEPGDIIGVIGN | 3.12
15 | YAHQPRTADEIPMEPGDIIGVEGN | 3.92
16 | YAHQPRTADEIPMEPGDIIGVLGN | 3.63
17 | YAHQPRTADEIPMEPGDIIGVKGN | 4.4
18 | YAHQPRTADEIPMEPGDIIGVCGN | 3.14
19 | YAHQPRTADEIPMEPGDVIGVAGN | 4.47
20 | YAHQPRTADEIPMEPGDSIGVAGN | 3.79
21 | YAHQPRTADEIPMEPGDPIGVAGN | 4.7
22 | YAHQPRTADEIPMEPGDQIGVAGN | 4.07
23 | YAHQPRTADEIPMEPGDAIGVAGN | 3.83
24 | YAHQPRTADEIPMEPGDGIGVAGN | 3.84

Row | Variant | protein stability index
25 | YAHQPRTADEIPMEPGDYIGVAGN | 3.63
26 | YAHQPRTADEIPMEPGDEIGVAGN | 4.19
27 | YAHQPRTADEIPMEPGDWIGVAGN | 3.11
28 | YAHQPRTADEIPMEPGDFIGVAGN | 3.55
29 | YAHQPRTADEIPMEPGDCIGVAGN | 3.01
30 | YAHQPRTADEIPMEPGDDIGVAGN | 4.95
31 | YAHQPRTADEIPMEPGDRIGVAGN | 4.45
32 | YAHQPRTADEIPMEPGDMIGVAGN | 4.21
33 | YAHQPRTADEIPMEPGDTIGVAGN | 4.2
34 | YAHQPRTADEIPMEPGDHIGVAGN | 3.71
35 | YAHQPRTADEIPMEPGDKIGVAGN | 4.56
36 | YAHQPRTADEIPMEPGDLIGVAGN | 4.05
37 | YAHQPRTADEIPMEPGDNIGVAGN | 4.03
38 | YAHQPRTADEIPMEPEDIIGVAGN | 4.26
39 | YAHQPRTADEIPMEPCDIIGVAGN | 3.5
40 | YAHQPRTADEIPMEPADIIGVAGN | 4.3
41 | YAHQPRTADEIPMEPTDIIGVAGN | 3.86
42 | YAHQPRTADEIPMEPQDIIGVAGN | 4.17
43 | YAHQPRTADEIPMEPFDIIGVAGN | 2.93
44 | YAHQPRTADEIPMEPNDIIGVAGN | 4.16
45 | YAHQPRTADEIPMEPHDIIGVAGN | 4.08
46 | YAHQPRTADEIPMEPWDIIGVAGN | 2.12
47 | YAHQPRTADEIPMEPIDIIGVAGN | 3.44
48 | YAHQPRTADEIPMEPRDIIGVAGN | 3.66

Row | Variant | protein stability index
49 | YAHQPRTADEIPMEPYDIIGVAGN | 3.05
50 | YAHQPRTADEIPMEPDDIIGVAGN | 4.61
51 | YAHQPRTADEIPMEPPDIIGVAGN | 4.1
52 | YAHQPRTADEIPMEPMDIIGVAGN | 3.54
53 | YAHQPRTADEIPMEPSDIIGVAGN | 3.87
54 | YAHQPRTADEIPMEPLDIIGVAGN | 3.73
55 | YAHQPRTADEIPMEPKDIIGVAGN | 3.75
56 | YAHQPRTADEIPMEPVDIIGVAGN | 3.92
57 | YAHQPRTADEIPMEPGDIIGDAGN | 4.62
58 | YAHQPRTADEIPMEPGDIIGHAGN | 4.15
59 | YAHQPRTADEIPMEPGDIIGKAGN | 3.99
60 | YAHQPRTADEIPMEPGDIIGTAGN | 4.69
61 | YAHQPRTADEIPMEPGDIIGEAGN | 4.62
62 | YAHQPRTADEIPMEPGDIIGNAGN | 4.28
63 | YAHQPRTADEIPMEPGDIIGAAGN | 4.33
64 | YAHQPRTADEIPMEPGDIIGSAGN | 4.05
65 | YAHQPRTADEIPMEPGDIIGCAGN | 4
66 | YAHQPRTADEIPMEPGDIIGWAGN | 3.03
67 | YAHQPRTADEIPMEPGDIIGYAGN | 3.82
68 | YAHQPRTADEIPMEPGDIIGIAGN | 3.93
69 | YAHQPRTADEIPMEPGDIIGPAGN | 4.13
70 | YAHQPRTADEIPMEPGDIIGFAGN | 3.8
71 | YAHQPRTADEIPMEPGDIIGLAGN | 4.03
72 | YAHQPRTADEIPMEPGDIIGQAGN | 4.22

Row | Variant | protein stability index
73 | YAHQPRTADEIPMEPGDIIGRAGN | 3.47
74 | YAHQPRTADEIPMEPGDIIGGAGN | 4.29
75 | YAHQPRTADEIPMEPGDIIGMAGN | 3.68
76 | YAHQPRTADEIPMHPGDIIGVAGN | 3.5
77 | YAHQPRTADEIPMMPGDIIGVAGN | 3.25
78 | YAHQPRTADEIPMSPGDIIGVAGN | 3.29
79 | YAHQPRTADEIPMIPGDIIGVAGN | 3.23
80 | YAHQPRTADEIPMPPGDIIGVAGN | 3.12
81 | YAHQPRTADEIPMFPGDIIGVAGN | 2.46
82 | YAHQPRTADEIPMQPGDIIGVAGN | 3.47
83 | YAHQPRTADEIPMNPGDIIGVAGN | 3.25
84 | YAHQPRTADEIPMGPGDIIGVAGN | 3.35
85 | YAHQPRTADEIPMLPGDIIGVAGN | 2.88
86 | YAHQPRTADEIPMDPGDIIGVAGN | 3.75
87 | YAHQPRTADEIPMVPGDIIGVAGN | 3.58
88 | YAHQPRTADEIPMCPGDIIGVAGN | 3.32
89 | YAHQPRTADEIPMTPGDIIGVAGN | 3.9
90 | YAHQPRTADEIPMKPGDIIGVAGN | 3.29
91 | YAHQPRTADEIPMYPGDIIGVAGN | 2.27
92 | YAHQPRTADEIPMRPGDIIGVAGN | 3.48
93 | YAHQPRTADEIPMWPGDIIGVAGN | 2.1
94 | YAHQPRTADEIPMAPGDIIGVAGN | 3.41
